Assay: label from the status in PepcDB records

Sequence	protein production
MLKFLSVRVEDHIAVATLNHAPANAMSSQVMHDVTELIDQVEKDDNIRVVVIHGEGRFFSAGADIKEFTSVTEAKQATELAQLGQVTFERVEKCSKPVIAAIHGAALGGGLEFAMSCHMRFATESAKLGLPELTLGLIPGFAGTQRLPRYVGKAKACEMMLTSTPITGAEALKWGLVNGVFAEETFLDDTLKVAKQIAGKSPATARAVLELLQTTKSSHYYEGVQREAQIFGEVFTSEDGREGVAAFLEKRKPSFSGR	not failed
DLSSVIKASQTLASEIKLEKLLSTLMELVIENAGAKKCVLVLLKNERLLIEAIAKINQVPISTILVSIPIAESDEIPISLINYVSHTSQTLVIDDATTEDLFISDPYIQQKEPKSLLCTPIIKQGKLMGILYLENHLTTGAFTSDRLQVINLLMAQAAISLENAQLYGQLAEYSQNLELKVEQRT	failed
MEISEQESVLEVKKRLGQFLQIPTSSITLFVSCWELIDGLDIEDYPIISHGTRIDLTVTPLFTAPSFIHAAVRKIHVTVKFPSKQFTVEVDRTETVSSLKDKIHIVENTPIKRMQLYYSGIELADDYRNLNEYGITEFSEIVVFLKSINRAKDVAPTSSSLFNGARIPVEIKDTCTISEMREGLQANKTLPRDEYIFVHKQRIMRENCSLRWHGVENGDTLFVFKGSISREGF	failed
MPTLDALTPIFRQVFDDDSIVLTRETSANDIDAWDSLSHMNLIVSLEVHYKIKFALGELQKLKNVGDLADLVDKKLARKLEHHHHHH	failed
MSQTTVVNGVNVDQLMATIEQIKAKPEIAQFKFRATNQWMGGTHNQATIKDFYGACAEDDTRKPMVFDLDEPPVLLGENRGANPVEYLLVALSGCLTTSLVAHAAARGIALRGVKSRYEGDIDLRGFLGLSEEVPVGYREIRVFFSIDADLTDGQKEELIRMAQKYSPVYNTVAKPVPVAVLLDRG	not failed
SIQGKVALIAGGAKNLGGLIARDLAAHGARAIAIHYNSPASKADADATVAALQAAGAQAVALQGDLTTAAAVEKLYADALAAVGRPDIAINTVGKVLKKPFSEISEAEYDEMAAVNAKSAFFFLKEAGRHVNDHGKIVTLVTSLLGAFTPFYSAYAGTKAPVEHYTRAAAKEFGARGISVTAVGPGPMDTPFFYGQESPEAVAYHQSAAALSPHSPTGLTHIEDVVPFIRHLVSDGWWITGQTLLINGGY	failed
SSKPPPKPVKPGEGGQVKVFRALYTFEPRTPDELYFEEGDIIYITDMSDTNWWKGTSKGRTGLIPSNYVAEQAESIDNPLHEAAKRGNLSWLRECLDNRVGVNGLDKAGSTALYWACHGGHKDIVEMLFTQPNIELNQQNKLGDTALHAAAWKGYADIVQLFLAKGARTDLRNIEKKLAFDMATNAACASLLKKKQGTDAVRTLSNAEDYLDDEDSD	failed
MMRIGLFLLTNLAVLVVAGIILSLFGVGSYHGAGGLNLGNLLVICFVFGMVGSLISLLMSKWMAKKTTGTEIIDPNAPRNQAEAWLLQTVAELSQRAGIQMPEVGIFPSYQSNAFATGWNKNDALVSVSTGLMERMNKDELRAVLAHEIGHVANGDMVTLALIQGVVNAFVMFFARVVGDFIDRNVFGRQDGEAPGMGYFAITIVLDIVFGILASAIVMWFSRHREYRADEAGARLAGKQAMISALLRLQAESEMPDQMPKEMKAFAIAEGKEQGFSLAALFQTHPSIEQRVAALQQLNCP	failed
MTTSGERRVAGLAMIGSAACWGSATVMSRDLLVSMTSIQLLLVQLMASVCVLLALAAPRFPWTYRSREMTKGALCGVLEPGLAYVVGLAGLAQTTAGRASIISASEPVLIVLVAWVLFNQRPGLRLMAAIAIAVGGLVLVSWSPVVEDRGGAFRGDMMVVLATLFAAGYVVISSRIVGSFPAASLASGQQMVGLAFAMLVYAGAMAHGDDMGGFGAIPGGTLAYAALSGVVQYALAFWLYLIGLRYLSAGAAGLWLTLIPVFGLAGAWLWLGERPGLLTVLGAIVIVSAVVLGNRGGTE	failed
MTQPNIIMTRVDERLIHGQGQLWVKFLNCNTVIVANDAVSEDKIQQSLMKTVIPSSIAIRFFSIQKVIDIIHKASPAQSIFIVVKDLQDAKLLVEGGVPITEINIGNIHKTDDKVAITQFISLGETDKSAIRCLAHDHHVVFNTKTTPAGNSASDVDILDYI	not failed
MPKANLEIIRSTYEGSASSNAKHLAEALSEKVEWTEAEGFPYGGTYIGVEAIMENVFSRLGSEWNDYKASVNMYHEVSGKDVIIAEGMYSGVYKDTGKSFEAEFVHVWQLENGKIVKFKQYVDSHLVREAMKS	not failed
MPSLPASAESLLPPTLDESTRLEVLRGLCLLDSPPDPVFDTVAAMAARSLDAEIAVVSLVDEHRQWFKARIGLEARETPRSQAFCAHAIRSDEVMVVPDAQLDPRFCDNPLVLGPPFIRFYAGAPLKLRDGHRIGTLCVIGTSPRPGLDQAAITQLEGLRDLAVLRVENLRSTTYRDGPTGLPNRSRFSEDLDTWLSQRDTAPATTAVAIDVCGSDYFRDMVKALGWEYADGYIALAQRRLAAYLPGGTLLYRLDPTTFGFLAQAEGQRLATLCTKVSKAFTEPLEHQGIPHTAVASIGAVSLQSSYGAADTIRSLTTAVDIARERCLPWSMYERKHDVAQRNTFRLLAALPAALDSSSQLRLHFQPRVDLHDHRCVGVEALLRWQHPMIGPVMPSDFIPMAEKTALINRITAWVIDNGIAQAARWQQQGLDFNLALNVSAADLDRPGFAGLLRRGLDRHKLDPRRLEIEFTESAMIRHPDHLAEQLAAIAALGVHIAIDDFGTGYSNFSYLKQLPASSLKIDQSFIRSLPDSRTDRTLVPAMIQLGHSLGQRVVAEGIESAEAYAQLRAWGCDEGQGYWIAKPMPAAALETWLETPWHEQHAAPVNLLAASLAAARV	failed
MTMPIFNISDDVDLVPAMPAEGRDGGSYRRQIWQDDVENGTIVAVWMAEPGIYNYAGRDLEETFVVVEGEALYSQADADPVKIGPGSIVSIAKGVPSRLEILSSFRKLATVIPKP	not failed
MKGGTIQISWHDGKPVLTVDFHPISGLLATAGADYDIKLWLINSGQAEKKVPSVSYQSSLTYHGCAVNTIRFSPSGELLASGADGGELFIWKLHPSETNQSWKVHKSLSFHRKDVLDLQWSPDDAYLISGSVDNSCIIWDVNKGSVHQILDAHCHYVQGVAWDPLAKYVASLSSDRTCRIYANKPQTKSKGVEKMNYVCQHVIMKADQQRGDETKTIKTHLFHDETLPSFFRRLSWSPDGSFLLIPAGSFKVSPTSEAVNATYVFSRKDLSRPALQLPGASKPVVVVRFCPVAFKLRGSSSEEGFFKLPYRLVFAIATLNSVYIYDTECVAPIAVLAGLHYAAITDITWSPNASYLALSSQDGYCTLVEFEDKELGEAVSISGLLLVLSLLNLPEPD	failed
DKEWNEKELQKLHCAFASLPKHKPGFWSEVAAAVGSRSPEECQRKYMENPRGKGSQKHVT	not failed
MGKTPEEVDEVNKAAFSTSEASATIAAMNQLHKPVDTVVAHISPEAPAAKVMAEGDVITQVAGAKATGPSQVRDAVRAKKPGETISIGFLRDGKQLTREVTLGTHPEDDKVAFLGVSMTARPLEHHHHHH	not failed
MERKGIFIKVFSYTIIVLLLLVGVTATLFAQQFVSYFRAMEAQQTVKSYQPLVELIQNSDRLDMQEVAGLFHYNNQSFEFYIEDKEGSVLYATPNADTSNSVRPDFLYVVHRDDNISIVAQSKAGVGLLYQGLTIRGIVMIAIMVVFSLLCAYIFARQMTTPIKALADSANKMANLKEVPPPLERKDELGALAHDMHSMYIRLKETIARLEDEIAREHELEETQRYFFAAASHELKTPIAAVSVLLEGMLENIGDYKDHSKYLRECIKMMDRQGKTISEILELVSLNDGRIVPIAEPLDIGRTVAELLPDFQTLAEANNQRFVTDIPAGQIVLSDPKLIQKALSNVILNAVQNTPQGGEVRIWSEPGAEKYRLSVLNMGVHIDDTALSKLFIPFYRIDQARSRKSGRSGLGLAIVQKTLDAMSLQYALENTSDGVLFWLDLPPTSTL	failed
MNTSSSFKALASPPLISTSRPTTKSFPNPRFTSRFSPKPITCMRDSLNLGSNPKAPSPFSLATVSVDAPLGTKTSDKLRILVSEFRSLTEPIDRVKRLLNYAATLAPLDESARISENRVTGCTTQVWLEIKMDEFGRMRFKADSDSEISKGFCSCLIWILDGAKPEEVMGVRSEDLSEMNVGVHGKEQSRVNTWHNVLMSMQKRTMTLVATDVAHQRGQRPPHQHDLLFKYVNGSYMESSKVHDYSISLLPLYYDFII	failed
